Source: patent US20140309175A1

Target: C1-Esterase (UniProt P09871)
Assay: cell-based or functional assay

C1-Esterase, sequence (P09871 16-688 limits assumed): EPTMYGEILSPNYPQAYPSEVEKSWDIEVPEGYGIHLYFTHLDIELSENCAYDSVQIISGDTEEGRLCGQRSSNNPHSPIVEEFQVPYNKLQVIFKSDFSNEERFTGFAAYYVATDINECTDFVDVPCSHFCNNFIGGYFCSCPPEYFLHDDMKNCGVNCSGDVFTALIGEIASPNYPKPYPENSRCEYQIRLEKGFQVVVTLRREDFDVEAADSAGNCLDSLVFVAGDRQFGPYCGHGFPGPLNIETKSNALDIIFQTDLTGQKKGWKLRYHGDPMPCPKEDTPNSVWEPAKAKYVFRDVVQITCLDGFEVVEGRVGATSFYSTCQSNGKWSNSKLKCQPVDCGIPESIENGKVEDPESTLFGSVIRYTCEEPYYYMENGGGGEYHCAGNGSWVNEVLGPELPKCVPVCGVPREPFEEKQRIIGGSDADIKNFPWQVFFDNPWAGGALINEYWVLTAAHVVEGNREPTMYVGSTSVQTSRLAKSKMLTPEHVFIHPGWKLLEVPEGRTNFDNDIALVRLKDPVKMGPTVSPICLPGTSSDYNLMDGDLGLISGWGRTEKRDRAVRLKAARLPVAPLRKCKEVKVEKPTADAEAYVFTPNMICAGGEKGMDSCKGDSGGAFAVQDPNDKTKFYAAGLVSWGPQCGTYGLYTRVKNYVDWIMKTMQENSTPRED

“Mal-U-PEG-C1 INH (C1 inhibitor PEGylated with branched 40k mPEG-maleimide) (from UniProt P05155 23-500)” gave an in vitro C1 inhibitory activity of 3.3 U/mg and an in vitro C1 inhibitory activity, percent of native C1 inhibitor of 47%.

Substance “Mal-PEG-C1 INH (C1 esterase inhibitor PEGylated with 40 kDa maleimide mPEG) (from UniProt P05155 23-500)” has an in vitro C1 inhibitory activity of 6.1 U/mg and an in vitro C1 inhibitory activity, percent of native C1 inhibitor of 86%.
